Source: publication PMC12409452

Molecular target: mitochondrial electron transport chain complex III2 (UniProt P22695)
Test: BN-PAGE immunoblot (Ndufb8), band quantification
Conditions: A549 cells transfected with Ndufs1 plasmid; respirasome band CIn+CIIIn+CIVn normalised to free CI band; n = 3, mean ± SD; parent: est. 0.04; read off a plot

Chain of UniProt P22695 (P22695 whole entry, looked up, one chain of several): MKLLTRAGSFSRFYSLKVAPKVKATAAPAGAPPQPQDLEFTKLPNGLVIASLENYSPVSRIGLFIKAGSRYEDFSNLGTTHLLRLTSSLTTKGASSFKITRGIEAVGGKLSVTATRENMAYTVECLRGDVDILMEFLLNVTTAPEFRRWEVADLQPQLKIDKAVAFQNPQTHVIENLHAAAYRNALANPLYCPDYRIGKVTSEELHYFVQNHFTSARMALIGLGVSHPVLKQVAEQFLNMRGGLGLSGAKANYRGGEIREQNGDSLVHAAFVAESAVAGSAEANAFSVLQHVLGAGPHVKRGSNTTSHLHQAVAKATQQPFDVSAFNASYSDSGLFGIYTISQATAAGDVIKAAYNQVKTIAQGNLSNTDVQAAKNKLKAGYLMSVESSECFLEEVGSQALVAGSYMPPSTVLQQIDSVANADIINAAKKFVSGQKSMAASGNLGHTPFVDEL

Row | Substance | other: Relative Respirasome level (vs CI)
1 | mitochondrial electron transport chain complex I with wild-type Ndufs1 (from UniProt P28331;O95169) C64D | 1.9
2 | mitochondrial electron transport chain complex I with wild-type Ndufs1 (from UniProt P28331;O95169) C75D | 1.9
3 | mitochondrial electron transport chain complex I with wild-type Ndufs1 (from UniProt P28331;O95169) C78D | 1.4
4 | mitochondrial electron transport chain complex I with wild-type Ndufs1 (from UniProt P28331;O95169) C92D | 1.5
5 | mitochondrial electron transport chain complex I with wild-type Ndufs1 (from UniProt P28331;O95169) C367D | 0.15
6 | mitochondrial electron transport chain complex I with wild-type Ndufs1 (from UniProt P28331;O95169) C554D | 1.1
7 | mitochondrial electron transport chain complex I with wild-type Ndufs1 (from UniProt P28331;O95169) C564D | 1.2
8 | mitochondrial electron transport chain complex I with wild-type Ndufs1 (from UniProt P28331;O95169) C727D | 1
